Results as given in patent US20030211523A1 (published 2003).

Key:
[1] = biological target: VP16 activation domain alone, encoded by the empty prey vector PMVP (UniProt P06492); test: cell-based or functional assay
[2] = biological target: VP16 transcription activation domain fused to aa 133-239 of c-Fos, encoded by PMVP_Fos (human) (UniProt P01100); test: cell-based or functional assay
[3] = biological target: T1, JZ domain of c-Jun fused with GFP, encoded by PMNGFP_JZ (human, UniProt P05412 249-331; P42212 1-238 = GFP); test: in vivo binding screening: membrane localization of the GFP fusion in HEK293T cells, fluorescence microscopy
T1 construct: Expressed in HEK293T cells; also called bait in the second screening

[4] = biological target: T2, JA domain (aa 1-223) of c-Jun fused with GFP, encoded by PMNGFP_JA (human, UniProt P05412 1-223; P42212 1-238 = GFP); test: as above
T2 construct: Expressed in HEK293T cells

VP16 activation domain alone, encoded by the empty prey vector PMVP, sequence (P06492 411-456 limits assumed): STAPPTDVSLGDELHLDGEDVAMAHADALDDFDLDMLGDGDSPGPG

Gal4 DNA-binding domain fused to the JZ domain (aa 249-331) of c-Jun, encoded by PMBD_JZ (from UniProt P04386 1-147; P05412 249-331)
events with GFP 30-fold or more above the background (FACS) (event in 10000) [1]: < 1

Gal4 DNA-binding domain alone, encoded by the empty bait vector PMBD (from UniProt P04386 1-147)
events with GFP 30-fold or more above the background (FACS) (event in 10000) [2]: < 1

B1: Fyn_JA: Fyn membrane-localizing signal fused to the JA domain of c-Jun (other, UniProt P06241 1-10, looked up)
chain: MGCVQCKDKEMTAKMETTFYDDALNASFLPSESGPYGYSNPKILKQSMTLNLADPVGSLKPHLRAKNSDLLTSPDVGLLKLASPELERLIIQSSNGHITTTPTPTQFLCPKNVTDEQEGFAEGFVRALAELHSQNTLPSVTSAAQPVNGAGMVAPAVASVAGGSGSGGFSASLHSEPPVYANLSNFNPGALSSGGGAPSYGAAGLAFPAQPQQQQQPPHHLPQQMPVQHPRLQ
modifications: myristoylation signal at the N-terminus (membrane-localizing signal)
notes: domain: myristoylation signal;range 1-223
binding result [3]: no binding

B2: Fyn_Fos peptide: Fyn myristoylation (membrane-localizing) signal fused to c-Fos aa 133-239, expressed from the 3-primer PCR product (other, UniProt P06241 1-10, looked up)
chain: MGCVQCKDKESPEEEEKRRIRRERNKMAAAKCRNRRRELTDTLQAETDQLEDEKSALQTEIANLLKEKEKLEFILAAHRPACKIPDDLGFPEEMSVASLDLTGGLPEVATPESEEAF
modifications: myristoylation signal at the N-terminus (membrane-localizing signal)
notes: domain: myristoylation signal;range 133-239; Expressed in HEK293T cells
binding result [4]: no binding
